In patent publication US20220056139A1 (UNIVERSITY OF SOUTHERN CALIFORNIA, published 2022):
Each block holds one binder with its values, some of them ahead of it.

Molecular target: HLA-DR (human)
Test: cell-based or functional assay

B1: huLym-1-B-DAP CAR (Experiment 3, with 261 tag) (receptor)
chain: EVQLVESGGGLVQPGRSLRLTCTASGFSLTSYGVHWVRQPPGKGLEWLAVIWSDGSTTYNSALKSRLTISKDNSKSQVYLQMNSLRAEDTAVYYCARHYGSTLAFASWGQGTLVTVSSGGGGSGGGGSGGGGSDIQMTQSPSSLSASVGDRVTITCRASVNIYSYLAWYQQKPGKAPNLLIYNAKILAEGVPSRFSGSGSGTDFTLTISSLQPEDFASYYCQHHYGTFTFGQGTKVEIKAVPPQQWALSTTTPAPRPPTPAPTIASQPLSLRPEACRPAAGGAVHTRGLDFACDIYIWAPLAGTCGVLLLSLVITLYCLCARPRRSPAQDGKVYINMPGRGYFLGRLVPRGRGAAEAATRKQRITETESPYQELQGQRSDVYSDLNTQRPYYK
killing of Raji cells at 2:1 effector to target ratio, overnight co-culture: ~80%

fold expansion of CAR T cells from days 7-14: < 4 fold
B2: huLym-1-B-BB3z CAR (receptor)
chain: EVQLVESGGGLVQPGRSLRLTCTASGFSLTSYGVHWVRQPPGKGLEWLAVIWSDGSTTYNSALKSRLTISKDNSKSQVYLQMNSLRAEDTAVYYCARHYGSTLAFASWGQGTLVTVSSGGGGSGGGGSGGGGSDIQMTQSPSSLSASVGDRVTITCRASVNIYSYLAWYQQKPGKAPNLLIYNAKILAEGVPSRFSGSGSGTDFTLTISSLQPEDFASYYCQHHYGTFTFGQGTKVEIKAVPPQQWALSTTTPAPRPPTPAPTIASQPLSLRPEACRPAAGGAVHTRGLDFACDIYIWAPLAGTCGVLLLSLVITLYCKRGRKKLLYIFKQPFMRPVQTTQEEDGCSCRFPEEEEGGCELRVKFSRSADAPAYKQGQNQLYNELNLGRREEYDVLDKRRGRDPEMGGKPRRKNPQEGLYNELQKDKMAEAYSEIGMKGERRRGKGHDGLYQGLSTATKDTYDALHMQALPP
